Laboratory results from patent US20230383006A1 (ADIENNE S A, published 2023).

Assays:
[1] = target: T1, Matrix 3 discontinuous CLIPS peptides covering residues 226 to 252 of human CD26 (human, peptides fixed on a CLIPS scaffold through thiol side chains of cysteines); test: CLIPS epitope mapping, discontinuous peptides, Matrix 3
T1 construct: A set of peptide constructs from this range; also called protruding loop of CD26
From the text: The epitopes recognized by the CDina26 antibody produced by hybridoma cell line deposited as PD 12002 have been identified by CLIPS™ Epitope Mapping technology. See, e.g., U.S. Pat. Nos. 7,863,239 and 7,972,993, the disclosures of which are herein incorporated by reference in their entirety. Briefly, CLIPS™ technology structurally fixes peptides into defined three-dimensional structures. […] The CLIPS™ reaction takes place between bromo groups of the CLIPS™ scaffold and thiol side chains of cysteines. The reaction is fast and specific under mild conditions (Timmerman et al., J. Mol. Recognit. 2007; 20: 283-29).
CLIPS™ library screening starts with the conversion of the human CD26 target protein into a library of overlapping peptide constructs, using a combinatorial matrix design. On a solid carrier, a matrix of linear peptides is synthesized, which are subsequently shaped into spatially defined CLIPS™ constructs. Constructs representing several parts of a discontinuous epitope in the correct conformation bind the antibody with high affinity, which is detected and quantified. […] Affinity information is used in iterative screens to define the sequence and conformation of epitopes in detail.

[2] = target: Purified recombinant human CD26 (rhDipeptidyl peptidase IV; Creative BioMart; CAT #DPP4-116H) (human, UniProt P27487 29-766); test: SPR (Biacore), 25 C, CDina26 captured on anti-IgG2b CM5 chip, human CD26 as analyte at 30-810 nM
Procedure: Surface Plasmon Resonance system (Biacore®) was used to determine the affinity of CDina26 for human CD26 according to standard protocols. Affinity measurements were taken at 25° C., immobilizing on carboxymethyl dextran chip (CM5) 10.000 RU of an anti-IgG2b antibody (GE Healthcare, 22-0648-97 AC). CDina26 was prepared as stock in HBS-EP (0.01M HEPES, pH 7.4, 0.15M NaCl, 3 mM EDTA, 0.005% Surfactant P20) running buffer in a final concentration of 50 μg/ml, and for each experiment 2.000 RU were reversibly immobilized on the chip by injection with a flow of 10 μl/min in a period of 180 seconds.
Purified recombinant human CD26 (rhDipeptidyl peptidase IV; Creative BioMart; CAT #DPP4-116H) was prepared in a stock concentration of 5.8×10^-6 M. CD26 was injected at increasing concentrations of 30×10⁻⁹, 90×10⁻⁹ M, 270×10⁻⁹ M and 810×10⁻⁹ M. The CD26 samples were injected with a flow of 10μl/minute; with HBS-EP buffer used as running buffer. A typical recording included a 3 minutes period of injection of the CD26 followed by a period of 8 minutes of dissociation. The raw binding data was analyzed according to standard methods. CM5 chip with immobilized anti-IgG2b antibody was regenerated by injection of 10 mM Glycine-HCl pH 1.7 with a flow of injection of 20 μl/min and for a period of 60 seconds.

[3] = target: T2, Porcine Antigen (purchased from Sigma CAT #D 7052) (porcine, UniProt P22411 38-766, limits assumed); test: Biacore, CDina26 captured by an immobilized polyclonal anti-mouse Ig antibody, Porcine Ag injected in solution
T2 construct: Bought soluble protein; also called porcine CD26; Porcine Antigen (Ag)

[4] = target: T3, Human Antigen (purchased from Sigma CAT #D4943) (human, UniProt P27487 29-766, limits assumed); test: Biacore T100, CDina26 captured by immobilized polyclonal anti-mouse Ig antibody, human antigen injected at two concentrations
T3 construct: Bought soluble protein injected in solution in Biacore; also called human CD26; Human Antigen (Ag)

[5] = target: T4, porcine CD26 expressed on minipig T lymphocytes (porcine (minipig), UniProt P22411 1-766); test: multiparametric flow cytometry on lymphocytes from minipig peripheral blood, CD3 (FL1-H) against CD26/CDina26 (FL2-H)
T4 construct: whole, on cells; Native CD26 on lymphocytes isolated from minipig peripheral blood; also called minipig CD26; Porcine Antigen as a transmembrane protein expressed on T lymphocytes
T4 sequence (P22411 whole entry): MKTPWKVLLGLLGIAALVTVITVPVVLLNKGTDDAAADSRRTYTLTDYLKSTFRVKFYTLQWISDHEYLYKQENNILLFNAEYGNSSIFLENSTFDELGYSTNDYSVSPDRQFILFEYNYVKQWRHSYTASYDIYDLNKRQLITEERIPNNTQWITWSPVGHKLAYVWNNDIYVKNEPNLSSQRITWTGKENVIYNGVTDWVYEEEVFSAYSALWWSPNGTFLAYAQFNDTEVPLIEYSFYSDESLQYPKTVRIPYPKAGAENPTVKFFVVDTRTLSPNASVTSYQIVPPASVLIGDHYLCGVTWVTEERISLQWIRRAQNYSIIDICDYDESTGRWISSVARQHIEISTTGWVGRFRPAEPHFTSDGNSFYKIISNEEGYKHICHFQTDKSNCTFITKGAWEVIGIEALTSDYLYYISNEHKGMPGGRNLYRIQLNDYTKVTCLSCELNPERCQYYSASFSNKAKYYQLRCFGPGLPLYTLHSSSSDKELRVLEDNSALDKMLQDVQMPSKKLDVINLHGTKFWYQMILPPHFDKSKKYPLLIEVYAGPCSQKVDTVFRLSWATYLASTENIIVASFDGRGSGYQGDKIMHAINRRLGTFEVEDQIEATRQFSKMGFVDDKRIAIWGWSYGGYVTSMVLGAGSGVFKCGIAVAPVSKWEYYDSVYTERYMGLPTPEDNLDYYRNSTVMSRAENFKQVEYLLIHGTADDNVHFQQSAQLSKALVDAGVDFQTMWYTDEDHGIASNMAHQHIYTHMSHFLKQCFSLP

Chain of Purified recombinant human CD26 (rhDipeptidyl peptidase IV; Creative BioMart; CAT #DPP4-116H) (P27487 29-766 limits assumed): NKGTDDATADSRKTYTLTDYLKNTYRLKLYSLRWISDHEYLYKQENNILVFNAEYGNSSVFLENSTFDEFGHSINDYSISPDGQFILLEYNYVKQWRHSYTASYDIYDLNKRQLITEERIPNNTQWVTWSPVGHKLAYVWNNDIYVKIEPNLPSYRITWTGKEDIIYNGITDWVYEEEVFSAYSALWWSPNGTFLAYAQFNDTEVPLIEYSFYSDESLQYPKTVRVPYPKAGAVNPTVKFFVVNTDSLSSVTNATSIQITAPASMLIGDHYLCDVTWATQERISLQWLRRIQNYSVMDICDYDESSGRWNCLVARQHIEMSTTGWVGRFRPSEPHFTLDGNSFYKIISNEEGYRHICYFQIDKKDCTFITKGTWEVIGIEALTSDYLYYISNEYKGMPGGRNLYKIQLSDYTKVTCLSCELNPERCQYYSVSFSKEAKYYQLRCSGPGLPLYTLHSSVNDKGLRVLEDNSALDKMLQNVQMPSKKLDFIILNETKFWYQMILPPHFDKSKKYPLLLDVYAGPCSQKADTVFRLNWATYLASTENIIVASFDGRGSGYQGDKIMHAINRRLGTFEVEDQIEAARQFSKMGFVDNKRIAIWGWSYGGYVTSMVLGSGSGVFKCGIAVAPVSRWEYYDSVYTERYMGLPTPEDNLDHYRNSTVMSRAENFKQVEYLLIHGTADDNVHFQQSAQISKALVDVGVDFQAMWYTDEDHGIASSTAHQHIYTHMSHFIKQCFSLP
T2 sequence (P22411 38-766 limits assumed): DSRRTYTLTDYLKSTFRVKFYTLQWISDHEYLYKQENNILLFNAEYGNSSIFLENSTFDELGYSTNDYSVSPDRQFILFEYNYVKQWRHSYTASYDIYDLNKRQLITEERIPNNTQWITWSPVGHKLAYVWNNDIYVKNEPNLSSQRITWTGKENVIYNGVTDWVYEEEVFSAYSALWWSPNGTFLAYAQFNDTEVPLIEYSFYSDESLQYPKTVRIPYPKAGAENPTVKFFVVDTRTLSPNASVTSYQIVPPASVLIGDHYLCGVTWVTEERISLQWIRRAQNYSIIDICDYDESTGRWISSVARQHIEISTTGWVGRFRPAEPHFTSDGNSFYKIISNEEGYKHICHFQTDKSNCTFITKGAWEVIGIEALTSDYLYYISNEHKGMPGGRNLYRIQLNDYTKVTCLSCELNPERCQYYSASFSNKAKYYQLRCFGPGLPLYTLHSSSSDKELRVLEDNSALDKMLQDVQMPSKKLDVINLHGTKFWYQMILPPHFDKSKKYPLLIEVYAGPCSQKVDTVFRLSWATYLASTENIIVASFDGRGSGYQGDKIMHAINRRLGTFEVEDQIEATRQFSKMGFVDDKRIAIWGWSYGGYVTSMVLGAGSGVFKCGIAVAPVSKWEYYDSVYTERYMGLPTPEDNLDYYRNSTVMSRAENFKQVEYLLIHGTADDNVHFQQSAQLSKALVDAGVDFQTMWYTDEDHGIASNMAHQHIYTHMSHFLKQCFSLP
T3 sequence (P27487 29-766 limits assumed): as the sequence (P27487 29-766 limits assumed) above
T1 sequence (peptide, as listed by the source): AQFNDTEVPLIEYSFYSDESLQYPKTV

binding result [1]: no binding
Kd [2]: 5.02 nM
koff [2]: 0.000132 s⁻¹
kon [2]: 26300 M⁻¹ s⁻¹
binding result [3]: no binding
koff [4]: 2.8e-05 s⁻¹
binding result [5]: no binding
B1: CDina26 (antibody, mouse IgG2b, kappa, V domains shown)
VH: QVQLQQSGAELVKPGASVKLSCKASGYTFRSYDINWVRQRPEQGLEWIGWIFPGDGSTKYNEKFKGKATLTTDKSSSTAYMQLSRLTSEDSAVYFCARWTVVGPGYFDVWGAGTTVTVSS
VL: QIVLTQSPAIMSASPGEKVTITCSASSSVSYMNWFQQKPGTSPKLWIYSTSNLASGVPARFSGSGSGTSYSLTISRMEAEDAATYYCQQRSSYPNTFGGGTKLEIKR
notes: also called antibodies produced by the PD 12002 hybridoma cell line deposit; murine monoclonal antibody against CD26
